According to the supplement of paper PMC6757056:
± gives the standard deviation of the averaged measurements.

B1: library; a variant is named by its letters at N, in order (parent)
chain: GCUGUCACCGGUGCUUGGUACGUUAUAUUCAGCCGGUCUGAUGAGUCUNNNNNNAGACGAAACAGC

Tests used:
(6R,S)-folinic acid [1] = variants of: B1; assay: FACS-Seq fitted mean relative fluorescence mCherry/BFP without ligand (log10 relative fluorescence); HEK293T overexpressing SLC46A1; higher = higher reporter protein expression; conditions: without (6R,S)-folinic acid; ligand present: no
Summary of the method: (§1)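 Genomic DNA from 6 mCherry/BFP sort bins was PCR-amplified, barcoded and sequenced on MiSeq. The sorted cells were enriched HEK293T libraries, lentivirally transduced with a ribozyme-switch mCherry reporter and an EF1α-BFP marker, incubated with or without ligand for 48 h. Fluorescence derives from a normal fit to the bin counts. The fit was on log10(mCherry/BFP), and means were scaled to five spiked-in control ribozymes.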

(6R,S)-folinic acid [2] = variants of: B1; assay: normalized RNA/DNA level without ligand (relative to sTRSVctl = 100) (log10 (% of sTRSVctl)); HEK293T overexpressing SLC46A1; higher = less ribozyme self-cleavage, higher mRNA level; conditions: without (6R,S)-folinic acid; ligand present: no
Summary of the method: (§2)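 Only sequences with at least 100 DNA reads were analyzed, from HEK293T cells transfected with 4 µg per 6-well well of ribozyme switch library plasmids 72 h before RNA extraction with EDTA. Any ligand was added 1 h before transfection. RNA level was defined as RNA over DNA reads, normalized to a spiked-in non-cleaving sequence or to the top sequences, then scaled and log-transformed. The top set was 25 sequences, and the scaling was ×100 followed by log10.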

(6R,S)-folinic acid [3] = variants of: B1; assay: FACS-Seq fitted mean relative fluorescence mCherry/BFP with ligand (log10 relative fluorescence); HEK293T overexpressing SLC46A1; ligand concentration (+) FACS-Seq: 6 mM; higher = higher reporter protein expression; conditions: with (6R,S)-folinic acid; ligand present: yes
Summary of the method: as §1

(6R,S)-folinic acid [4] = variants of: B1; assay: normalized RNA/DNA level with ligand (relative to sTRSVctl = 100) (log10 (% of sTRSVctl)); HEK293T overexpressing SLC46A1; ligand concentration (+) RNA-Seq: 6 mM; higher = less ribozyme self-cleavage, higher mRNA level; conditions: with (6R,S)-folinic acid; ligand present: yes
Summary of the method: as §2

Row | Variant | FACS-Seq fitted mean (log10) ((6R,S)-folinic acid [1]) | normalized RNA/DNA level without ligand (log10) ((6R,S)-folinic acid [2]) | FACS-Seq fitted mean (log10) ((6R,S)-folinic acid [3]) | normalized RNA/DNA level with ligand (log10) ((6R,S)-folinic acid [4])
1 | AUAGAC | 0.4594 ± 0.0035 | 1.968 ± 0.0041 | 0.536 ± 0.13 | 1.98 ± 0.017
2 | AUAAGU | 0.346 ± 0.17 | 1.88 ± 0.024 | 0.682 ± 0.15 | 2.01 ± 0.044
3 | UUCCUG | 0.284 ± 0.092 | 1.96 ± 0.027 | 0.493 ± 0.079 | 2.03 ± 0.024
4 | GGUGAC | 0.359 ± 0.087 | 2.027 ± 0.008 | 0.217 ± 0.074 | 2.01 ± 0.037
5 | UUUCUG | 0.112 ± 0.063 | 1.92 ± 0.0064 | 0.197 ± 0.012 | 2 ± 0.061
6 | UAUCUC | – | 2.053 ± 0.018 | – | 2.03 ± 0.027
7 | GGCGAC | 0.216 ± 0.01 | 1.998 ± 0.003 | 0.128 ± 0.013 | 1.989 ± 0.0031
8 | GAAGAG | 0.0515 ± 0.088 | 1.837 ± 0.0055 | 0.356 ± 0.15 | 2.03 ± 0.034
9 | AUCCCC | – | 2.047 ± 0.013 | – | 2.01 ± 0.05
10 | GGGCAC | – | 2.003 ± 0.0062 | – | 2.02 ± 0.041
11 | CAGAUU | – | 1.997 ± 0.01 | – | 2.004 ± 0.011
12 | UAAAUU | – | 1.984 ± 0.011 | – | 2.017 ± 0.02
13 | GUCUAU | 0.0107 ± 0.49 | 2 ± 0.014 | 0.473 ± 0.4 | 2.02 ± 0.026
14 | UGAACG | 0.174 ± 0.17 | 1.83 ± 0.021 | 0.296 ± 0.022 | 2 ± 0.035
15 | CGGAGU | – | 2.019 ± 0.017 | – | 2.025 ± 0.012
16 | CGGAGC | – | 1.994 ± 0.0049 | – | 2 ± 0.032
17 | AUCCAU | – | 1.991 ± 0.0092 | – | 2.01 ± 0.042
18 | UAUGGC | -0.0353 ± 0.039 | 1.948 ± 0.014 | -0.149 ± 0.14 | 2 ± 0.032
19 | UUUCGG | – | 1.9984 ± 0.00042 | – | 1.99 ± 0.022
20 | AGCACU | 0.282 ± 0.032 | 2.02 ± 0.025 | 0.113 ± 0.16 | 2 ± 0.028
21 | GUCGCA | 0.512 ± 0.053 | 2.03 ± 0.021 | 0.745 ± 0.29 | 2.01 ± 0.041

Row | Variant | FACS-Seq fitted mean (log10) ((6R,S)-folinic acid [1]) | normalized RNA/DNA level without ligand (log10) ((6R,S)-folinic acid [2]) | FACS-Seq fitted mean (log10) ((6R,S)-folinic acid [3]) | normalized RNA/DNA level with ligand (log10) ((6R,S)-folinic acid [4])
22 | UGUGCU | 0.259 ± 0.17 | 2.024 ± 0.011 | 0.414 ± 0.076 | 2.07 ± 0.03
23 | GAAAAU | 0.553 ± 0.091 | 1.9868 ± 0.0018 | 0.647 ± 0.21 | 2.02 ± 0.022
24 | GAAAAC | 0.181 ± 0.013 | 1.948 ± 0.0025 | 0.078 ± 0.11 | 1.98 ± 0.034
25 | GAAAAG | 0.162 ± 0.24 | 1.94 ± 0.0028 | -0.223 ± 0.13 | 2 ± 0.032
26 | UCAAUG | 0.183 ± 0.076 | 1.814 ± 0.0085 | 0.195 ± 0.15 | 2 ± 0.037
27 | UGGUUG | 0.266 ± 0.011 | 1.829 ± 0.014 | 0.626 ± 0.09 | 1.98 ± 0.015
28 | AAGACC | – | 2.03 ± 0.033 | – | 2.03 ± 0.03
29 | UCGGAG | 0.429 ± 0.14 | 1.74 ± 0.019 | 0.837 ± 0.14 | 1.972 ± 0.0045
30 | UAAGCA | 0.463 ± 0.0091 | 1.9355 ± 0.00085 | 0.377 ± 0.12 | 1.99 ± 0.021
31 | AUUUCC | – | 2.048 ± 0.0099 | – | 2.037 ± 0.01
32 | CAUUUA | – | 1.97 ± 0.013 | – | 1.999 ± 0.013
33 | GCUCAU | -0.192 ± 0.045 | 2.02 ± 0.029 | -0.09 ± 0.67 | 2.009 ± 0.013
34 | GUCAUG | 0.406 ± 0.047 | 2.004 ± 0.01 | 0.165 ± 0.087 | 2.03 ± 0.027
35 | GGAUAU | – | 2.0169 ± 0.0015 | – | 2.02 ± 0.023
36 | GUCGAC | 0.479 ± 0.017 | 1.965 ± 0.0058 | 0.62 ± 0.022 | 2.025 ± 0.0097
37 | GAUGAG | 0.483 ± 0.0054 | 1.858 ± 0.0066 | 0.624 ± 0.12 | 1.978 ± 0.015
38 | GUAAGC | 0.239 ± 0.059 | 1.896 ± 0.0061 | 0.33 ± 0.072 | 2.01 ± 0.013
39 | GUGCGA | 0.238 ± 0.11 | 1.999 ± 0.014 | 0.278 ± 0.38 | 2.02 ± 0.044
40 | GCGCAC | 0.472 ± 0.12 | 1.99 ± 0.007 | 0.311 ± 0.17 | 2.01 ± 0.04
41 | GCGCAG | – | 2 ± 0.022 | – | 2.03 ± 0.027
42 | GAACCU | -0.507 ± 0.14 | 2.02 ± 0.0076 | -0.0321 ± 0.22 | 2.02 ± 0.04
